# Laboratory results taken from paper PMC7738868.
# Biological target: fibronectin with extra-domain B (EDB-FN) (human (endogenous in U87MG and U251MG)) (UniProt P02751)
# Assay: cellular uptake of rhodamine B-labelled micelles, confocal microscopy; U87MG and U251MG cells incubated 1 h at 37 °C with 100 µg/mL micelles holding 1.0, 2.5 or 5.0 wt% APTEDB-DSPE, washed with PBS, fixed; fluorescence normalised to DAPI (ImageJ); nontargeting PEG2000-DSPE micelles as …; also after EDB-FN siRNA in U87MG (uptake decreased) and over 5 min to 4 h
# Chain of UniProt P02751 (P02751 32-2477): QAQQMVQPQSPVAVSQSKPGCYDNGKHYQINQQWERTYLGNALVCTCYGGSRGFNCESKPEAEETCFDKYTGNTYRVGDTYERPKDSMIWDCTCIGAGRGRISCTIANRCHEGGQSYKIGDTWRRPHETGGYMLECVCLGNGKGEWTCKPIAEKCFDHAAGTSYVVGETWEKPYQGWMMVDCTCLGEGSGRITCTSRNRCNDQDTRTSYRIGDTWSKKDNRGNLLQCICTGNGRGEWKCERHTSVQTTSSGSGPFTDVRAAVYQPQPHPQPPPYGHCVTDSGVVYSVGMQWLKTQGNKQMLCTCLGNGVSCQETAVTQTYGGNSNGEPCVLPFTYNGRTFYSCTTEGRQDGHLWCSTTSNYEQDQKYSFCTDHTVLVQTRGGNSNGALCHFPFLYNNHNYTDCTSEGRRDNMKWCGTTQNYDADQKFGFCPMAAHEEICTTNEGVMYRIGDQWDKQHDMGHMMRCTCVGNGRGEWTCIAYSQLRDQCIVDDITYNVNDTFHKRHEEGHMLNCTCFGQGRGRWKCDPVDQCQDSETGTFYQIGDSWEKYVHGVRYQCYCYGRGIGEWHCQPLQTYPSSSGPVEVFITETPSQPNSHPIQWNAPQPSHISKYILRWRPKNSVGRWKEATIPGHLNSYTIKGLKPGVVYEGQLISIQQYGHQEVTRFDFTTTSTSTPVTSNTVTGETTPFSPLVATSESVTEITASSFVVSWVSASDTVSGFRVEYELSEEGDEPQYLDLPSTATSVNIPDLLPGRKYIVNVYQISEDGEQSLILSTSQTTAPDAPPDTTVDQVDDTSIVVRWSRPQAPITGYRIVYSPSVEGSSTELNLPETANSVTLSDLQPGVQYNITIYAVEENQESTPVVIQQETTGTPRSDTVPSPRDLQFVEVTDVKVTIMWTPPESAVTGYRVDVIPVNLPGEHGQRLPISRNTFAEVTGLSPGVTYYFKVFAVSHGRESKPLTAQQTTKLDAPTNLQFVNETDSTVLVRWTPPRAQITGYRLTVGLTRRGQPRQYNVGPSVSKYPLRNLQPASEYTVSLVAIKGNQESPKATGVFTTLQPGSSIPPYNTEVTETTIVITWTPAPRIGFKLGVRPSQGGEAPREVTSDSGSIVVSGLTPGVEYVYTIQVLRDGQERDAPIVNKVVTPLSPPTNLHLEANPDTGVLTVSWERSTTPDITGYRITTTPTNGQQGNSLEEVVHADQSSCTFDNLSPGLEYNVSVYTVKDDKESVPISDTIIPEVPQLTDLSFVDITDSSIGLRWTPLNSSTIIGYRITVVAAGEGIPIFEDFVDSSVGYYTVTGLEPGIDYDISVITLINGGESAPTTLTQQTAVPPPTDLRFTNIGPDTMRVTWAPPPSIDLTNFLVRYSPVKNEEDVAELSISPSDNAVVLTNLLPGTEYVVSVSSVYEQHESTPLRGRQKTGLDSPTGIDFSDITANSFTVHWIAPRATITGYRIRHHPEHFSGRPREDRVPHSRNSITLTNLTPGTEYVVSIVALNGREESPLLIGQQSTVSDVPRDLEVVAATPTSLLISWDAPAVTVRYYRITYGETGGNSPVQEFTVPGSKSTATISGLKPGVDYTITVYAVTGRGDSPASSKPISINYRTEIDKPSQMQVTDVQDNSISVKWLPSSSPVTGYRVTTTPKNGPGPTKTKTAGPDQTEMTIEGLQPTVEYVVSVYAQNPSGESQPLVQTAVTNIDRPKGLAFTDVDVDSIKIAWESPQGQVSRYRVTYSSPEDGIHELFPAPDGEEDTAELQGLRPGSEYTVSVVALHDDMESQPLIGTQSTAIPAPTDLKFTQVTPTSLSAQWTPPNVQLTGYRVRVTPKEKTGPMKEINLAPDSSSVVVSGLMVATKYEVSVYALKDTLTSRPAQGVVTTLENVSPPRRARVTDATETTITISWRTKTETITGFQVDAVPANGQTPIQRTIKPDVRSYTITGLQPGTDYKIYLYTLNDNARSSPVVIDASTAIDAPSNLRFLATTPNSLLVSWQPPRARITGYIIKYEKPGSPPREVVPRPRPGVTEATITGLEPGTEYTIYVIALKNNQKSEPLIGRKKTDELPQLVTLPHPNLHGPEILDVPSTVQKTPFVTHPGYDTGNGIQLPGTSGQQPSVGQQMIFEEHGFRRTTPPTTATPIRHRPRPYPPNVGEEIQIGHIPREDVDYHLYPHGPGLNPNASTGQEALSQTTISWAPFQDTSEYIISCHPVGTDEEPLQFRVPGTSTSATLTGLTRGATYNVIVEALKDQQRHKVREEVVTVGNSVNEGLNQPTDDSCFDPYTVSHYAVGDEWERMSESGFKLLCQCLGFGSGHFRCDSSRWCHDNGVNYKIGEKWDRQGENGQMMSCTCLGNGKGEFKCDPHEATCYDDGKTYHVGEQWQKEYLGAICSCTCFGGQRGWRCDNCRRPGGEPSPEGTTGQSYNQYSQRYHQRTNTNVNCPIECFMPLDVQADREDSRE
substance,measurement,value
APTEDB-conjugated PEG2000-DSPE (EDB-FN-specific aptamer-like peptide on the surface of a micellar nano-DDS) (designed binder),"cellular uptake, fluorescence intensity normalised to DAPI (U87MG cells, 1.0 wt% APTEDB-DSPE)",166 A.U.
same,"cellular uptake, fluorescence intensity normalised to DAPI (U87MG cells, 2.5 wt% APTEDB-DSPE)",93.2 A.U.
same,"cellular uptake, fluorescence intensity normalised to DAPI (U87MG cells, 5.0 wt% APTEDB-DSPE)",56.7 A.U.
same,"cellular uptake, fluorescence intensity normalised to DAPI (U251MG cells, 1.0 wt% APTEDB-DSPE)",76.4 A.U.
same,"cellular uptake, fluorescence intensity normalised to DAPI (U251MG cells, 2.5 wt% APTEDB-DSPE)",129 A.U.
same,"cellular uptake, fluorescence intensity normalised to DAPI (U251MG cells, 5.0 wt% APTEDB-DSPE)",53.4 A.U.
